Source: publication PMC3741272, “Identification and Characterization of a Novel aac(6′)-Iag Associated with the bla IMP-1–Integron in a Multidrug-Resistant Pseudomonas aeruginosa” (PLoS ONE, 2013)

Assays:
Experiment in all cases: purified protein
Format in all cases: biochemical, Pseudomonas aeruginosa
Conditions in all cases: 200 µM acetyl-CoA, 2 mM DTNB, 50 mM phosphate pH 7.0, 37°C
[1] = system: NC[C@H]1O[C@H](O[C@H]2[C@H](O)[C@@H](O[C@H]3O[C@H](CO)[C@@H](O)[C@H](N)[C@H]3O)[C@H](N)C[C@@H]2N)[C@H](N)C[C@@H]1O
[2] = system: NCC[C@H](O)C(=O)N[C@@H]1C[C@H](N)[C@@H](O[C@H]2O[C@H](CN)CC[C@H]2N)[C@H](O)[C@H]1O[C@H]1O[C@H](CO)[C@@H](O)[C@H](N)[C@H]1O
[3] = system: NCC[C@H](O)C(=O)N[C@@H]1C[C@H](N)[C@@H](O[C@H]2O[C@H](CN)[C@@H](O)[C@H](O)[C@H]2O)[C@H](O)[C@H]1O[C@H]1O[C@H](CO)[C@@H](O)[C@H](N)[C@H]1O
[4] = system: NC[C@H]1O[C@H](O[C@H]2[C@H](O)[C@@H](O[C@H]3O[C@H](CO)[C@@H](O)[C@H](N)[C@H]3O)[C@H](N)C[C@@H]2N)[C@H](O)[C@@H](O)[C@@H]1O
[5] = system: CN[C@@H]1[C@@H](O)[C@@H](O[C@@H]2[C@@H](O)[C@H](O[C@H]3OC(CN)=CC[C@H]3N)[C@@H](N)C[C@H]2N)OC[C@]1(C)O
[6] = system: NC[C@@H]1CC[C@@H](N)[C@@H](O[C@H]2[C@H](O)[C@@H](O[C@H]3O[C@H](CO)[C@@H](O)[C@H](N)[C@H]3O)[C@H](N)C[C@@H]2N)O1
[7] = system: CN[C@@H]1[C@@H](O)[C@@H](O[C@@H]2[C@@H](O)[C@H](O[C@H]3O[C@H](CN)[C@@H](O)[C@H](O)[C@H]3O)[C@@H](N)C[C@H]2NC(=O)[C@@H](O)CN)OC[C@]1(C)O

Substance: AAC(6′)-Iag (Pseudomonas aeruginosa)
- Km [1]: 3.27 ± 0.76 µM
- kcat [1]: 0.15 ± 0.03 s⁻¹
- kcat/Km [1]: 46000 M⁻¹ s⁻¹
- Km [2]: 9.9 ± 1.2 µM
- kcat [2]: 0.79 ± 0.07 s⁻¹
- kcat/Km [2]: 80000 M⁻¹ s⁻¹
- Km [3]: 189 ± 108 µM
- kcat [3]: 0.11 ± 0.03 s⁻¹
- kcat/Km [3]: 780 M⁻¹ s⁻¹
- Km [4]: 52.1 ± 16 µM
- kcat [4]: 0.29 ± 0.06 s⁻¹
- kcat/Km [4]: 5600 M⁻¹ s⁻¹
- Km [5]: 8.81 ± 1.2 µM
- kcat [5]: 0.745 ± 0.08 s⁻¹
- kcat/Km [5]: 85000 M⁻¹ s⁻¹
- Km [6]: 3.03 ± 0.64 µM
- kcat [6]: 0.194 ± 0.02 s⁻¹
- kcat/Km [6]: 64000 M⁻¹ s⁻¹
- Km [7]: 209 ± 88 µM
- kcat [7]: 0.10 ± 0.03 s⁻¹
- kcat/Km [7]: 520 M⁻¹ s⁻¹
